# Experimental data reported in the supplement of paper PMC7877785.
# ± gives the uncertainty stated by the source.
# Assay: self-splicing fitness, log relative to wild type (ln ratio); higher = more splicing; Tetrahymena group I intron in knt gene, E. coli kanamycin selection, DiMSum; sequences stand for … in CUCUCU…GGAGGGAAAAGUUAUCAGGCAUGCACCUGGUAGCUAGUCUUUAAACCAAUAGAUUGCAUCGGUUUAAAAGGCAAGACCGUCAAAUUGCGGGAAAGGGGUCAACAGCCGUUCAGUACCAAGUCUCAGGGGAAACUUUGAGAUGGCCUUGCAAAGGGUAUGGUAAUAAGCUGACGGACAUGGUCCUAACCACGCAGCCAAGUCCUAAGUCAACAGAUCUUCUGUUGAUAUGGAUGCAGUUCACAGACUAAAUGUCGGUCGGGGAAGAUGUAUUCUUCUCAUAAGAUAUAGUCGGACCUCUCCUUAAUGGGAGCUAGCGGAUGAAGUGAUGCAACACUGGAGCCGCUGGGAACUAAUUUGUAUGCGAAAGUAUAUUGAUUAGUUUUGGAGUACUCGUGGUCG
# Method in brief: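 DiMSum derived fitness as the error-weighted combination of fold changes across replicates, kanamycin versus no kanamycin, normalised to wild type. E. coli BL21(DE3) held the library, which randomised all eight P1ex-region intron nucleotides within the knt kanamycin-resistance gene on pET-22b(+). Six replicate transformations grew overnight at 37°C or 30°C on LB agar with or without 25 μg/mL kanamycin, also containing 100 μg/mL carbenicillin, 50 μM IPTG and 0.2% rhamnose, and pooled colonies were amplicon-sequenced on an Illumina HiSeq 2500.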
Sequence,self-splicing fitness (ln) (30 °C),self-splicing fitness (ln) (37 °C)
AAAAAGCAAUAUUACGAACA,-0.675 ± 0.092,-0.407 ± 0.11
AAAAAGCAAUAUUACGACCU,0.273 ± 0.072,0.617 ± 0.089
AAAAAGCAAUAUUACGACGU,0.102 ± 0.054,0.768 ± 0.067
AAAAAGCAAUAUUACGAGUG,-1.35 ± 0.088,-1.18 ± 0.09
AAAAAGCAAUAUUACGAUAU,-0.534 ± 0.061,-0.545 ± 0.079
AAAAAGCAAUAUUACGCAUU,-2.5 ± 0.1,-1.8 ± 0.11
AAAAAGCAAUAUUACGCCAA,-2.26 ± 0.17,-1.33 ± 0.12
AAAAAGCAAUAUUACGCCGU,-0.957 ± 0.064,-0.392 ± 0.072
AAAAAGCAAUAUUACGCGGC,-3.53 ± 0.26,-2.15 ± 0.27
AAAAAGCAAUAUUACGCUAG,-1.41 ± 0.086,-0.619 ± 0.085
AAAAAGCAAUAUUACGGAGU,-2.15 ± 0.13,-1.63 ± 0.13
AAAAAGCAAUAUUACGGCCA,-0.43 ± 0.11,-0.0922 ± 0.15
AAAAAGCAAUAUUACGGUAC,-3.24 ± 0.11,-1.76 ± 0.094
AAAAAGCAAUAUUACGGUUG,-2.28 ± 0.1,-1.58 ± 0.13
AAAAAGCAAUAUUACGUAAG,-1.08 ± 0.061,-0.0629 ± 0.081
AAAAAGCAAUAUUACGUCCC,-0.842 ± 0.15,0.362 ± 0.23
AAAAAGCAAUAUUACGUCGC,-2.7 ± 0.26,-1.34 ± 0.17
AAAAAGCAAUAUUACGUGCA,-0.742 ± 0.056,-0.201 ± 0.072
AAAAAGCAAUAUUACGUUAU,-2.13 ± 0.071,-1.55 ± 0.1
AAAAAGCAAUAUUACGUUCU,-0.294 ± 0.066,-0.0468 ± 0.083
AAAAAGCAAUAUUACGUUUG,-2.65 ± 0.097,-2.01 ± 0.12
AAACAGCAAUAUUACGACCA,-0.58 ± 0.061,-0.0342 ± 0.082
AAACAGCAAUAUUACGACUG,-1.64 ± 0.064,-0.795 ± 0.071
AAACAGCAAUAUUACGAUGG,-3.16 ± 0.15,-1.27 ± 0.16
AAACAGCAAUAUUACGCAUU,-2.68 ± 0.094,-1.08 ± 0.094
AAACAGCAAUAUUACGCCUA,-1.13 ± 0.086,-0.0496 ± 0.075

Sequence,self-splicing fitness (ln) (30 °C),self-splicing fitness (ln) (37 °C)
AAACAGCAAUAUUACGCCUC,-2.55 ± 0.15,-1.49 ± 0.15
AAACAGCAAUAUUACGCCUG,-1.99 ± 0.096,-0.538 ± 0.1
AAACAGCAAUAUUACGCGGG,-2.69 ± 0.097,-0.988 ± 0.073
AAACAGCAAUAUUACGCUAA,-1.6 ± 0.084,-1.58 ± 0.1
AAACAGCAAUAUUACGGACC,-1.94 ± 0.078,-1.08 ± 0.095
AAACAGCAAUAUUACGGCAA,-0.944 ± 0.096,-0.612 ± 0.11
AAACAGCAAUAUUACGGCUC,-0.311 ± 0.068,0.201 ± 0.095
AAACAGCAAUAUUACGGGAU,-2.65 ± 0.1,-1.69 ± 0.087
AAACAGCAAUAUUACGGGGA,-2.79 ± 0.1,-1.63 ± 0.081
AAACAGCAAUAUUACGUAGC,-4.24 ± 0.16,-2.98 ± 0.18
AAACAGCAAUAUUACGUAGG,-1.85 ± 0.057,-1.34 ± 0.08
AAACAGCAAUAUUACGUCCC,-1.44 ± 0.17,0.29 ± 0.17
AAACAGCAAUAUUACGUCGC,-3.37 ± 0.21,-2.92 ± 0.23
AAACAGCAAUAUUACGUCUU,-0.362 ± 0.054,0.322 ± 0.071
AAACAGCAAUAUUACGUGCU,-3.52 ± 0.2,-1.91 ± 0.14
AAACAGCAAUAUUACGUGGU,-4.06 ± 0.14,-2.31 ± 0.15
AAAGAGCAAUAUUACGAAAG,-3.63 ± 0.24,-3.18 ± 0.24
AAAGAGCAAUAUUACGAACG,-3.87 ± 0.21,-1.74 ± 0.13
AAAGAGCAAUAUUACGAAGU,-3.28 ± 0.38,-2.05 ± 0.32
AAAGAGCAAUAUUACGAGAC,-3.51 ± 0.35,-2.11 ± 0.27
AAAGAGCAAUAUUACGCACA,–,-0.789 ± 0.28
AAAGAGCAAUAUUACGCAGG,-3.47 ± 0.24,-3.45 ± 0.35
AAAGAGCAAUAUUACGCAUG,-2.55 ± 0.18,-1.7 ± 0.098
AAAGAGCAAUAUUACGCCGA,-1.81 ± 0.29,-2.33 ± 0.34
AAAGAGCAAUAUUACGCGAG,-1.87 ± 0.12,-1.58 ± 0.13
AAAGAGCAAUAUUACGCGCG,-2.69 ± 0.17,-1.65 ± 0.17

Sequence,self-splicing fitness (ln) (30 °C),self-splicing fitness (ln) (37 °C)
AAAGAGCAAUAUUACGCUGG,-4.07 ± 0.32,-1.89 ± 0.31
AAAGAGCAAUAUUACGGAAG,-3.76 ± 0.21,-2.62 ± 0.33
AAAGAGCAAUAUUACGGAGA,-2.99 ± 0.22,-1.98 ± 0.21
AAAGAGCAAUAUUACGGCCG,-1.78 ± 0.18,-0.0792 ± 0.23
AAAGAGCAAUAUUACGGGAC,-3.56 ± 0.38,-1.96 ± 0.22
AAAGAGCAAUAUUACGGGAU,-4.18 ± 0.23,-2.09 ± 0.17
AAAGAGCAAUAUUACGGUCG,-2.47 ± 0.16,-1.58 ± 0.15
AAAGAGCAAUAUUACGGUGA,-3.87 ± 0.22,-1.93 ± 0.14
AAAGAGCAAUAUUACGUACG,-3.6 ± 0.44,-1.9 ± 0.41
AAAGAGCAAUAUUACGUAGC,-4.35 ± 0.27,-2.45 ± 0.24
AAAGAGCAAUAUUACGUUUC,-3.41 ± 0.18,-2.55 ± 0.24
AAAUAGCAAUAUUACGAGCA,-1.4 ± 0.11,-0.127 ± 0.11
AAAUAGCAAUAUUACGAGCG,-1.75 ± 0.17,-0.208 ± 0.15
AAAUAGCAAUAUUACGAGUU,-1.22 ± 0.11,-0.896 ± 0.11
AAAUAGCAAUAUUACGCACA,-0.634 ± 0.097,-0.2 ± 0.14
AAAUAGCAAUAUUACGCCAU,-3.75 ± 0.25,-2.36 ± 0.24
AAAUAGCAAUAUUACGCCUC,-1.6 ± 0.14,-0.0982 ± 0.17
AAAUAGCAAUAUUACGCGAG,-1.93 ± 0.17,-0.639 ± 0.14
AAAUAGCAAUAUUACGCUUG,-1.77 ± 0.087,-0.8 ± 0.12
AAAUAGCAAUAUUACGGCAC,-0.691 ± 0.1,0.0337 ± 0.12
AAAUAGCAAUAUUACGGCAG,-1.67 ± 0.15,-0.465 ± 0.16
AAAUAGCAAUAUUACGGCGA,-0.48 ± 0.11,-0.0146 ± 0.12
AAAUAGCAAUAUUACGGCGU,-0.263 ± 0.071,-0.0261 ± 0.095
AAAUAGCAAUAUUACGGCUU,0.203 ± 0.1,0.139 ± 0.13
